Measured values: paper PMC8257933

B1: NTCP wild type, NTCP-FLAG and NTCP-V5-His expressed in HEK293 cells [human] / NTCP wild type, NTCP-FLAG and NTCP-V5-His expressed in HEK293 cells [human] (parent)
chain 1: MEAHNASAPFNFTLPPNFGKRPTDLALSVILVFMLFFIMLSLGCTMEFSKIKAHLWKPKGLAIALVAQYGIMPLTAFVLGKVFRLKNIEALAILVCGCSPGGNLSNVFSLAMKGDMNLSIVMTTCSTFCALGMMPLLLYIYSRGIYDGDLKDKVPYKGIVISLVLVLIPCTIGIVLKSKRPQYMRYVIKGGMIIILLCSVAVTVLSAINVGKSIMFAMTPLLIATSSLMPFIGFLLGYVLSALFCLNGRCRRTVSMETGCQNVQLCSTILNVAFPPEVIGPLFFFPLLYMIFQLGEGLLLIAIFWCYEKFKTPKDKTKMIYTAATTEETIPGALGNGTYKGEDCSPCTA
chain 2: B1 chain 1

Variants of: B1
Assay: co-IP (IP anti-FLAG agarose, western blot anti-V5, ImageJ band quantification)
Conditions: with NTCP wild type, HEK293 cells co-transfected with NTCP-FLAG and NTCP-V5-His, n = 3 independent experiments, parent: 100, read off a plot

Variant	percent of parent
chain 1 G60L A64L	110 % of control
chain 1 G60L A64L G233L G237L	160 % of control
chain 1 G233L G237L	130 % of control
